According to paper PMC9330073, “Cargo Recognition Mechanisms of Yeast Myo2 Revealed by AlphaFold2-Powered Protein Complex Prediction” (Biomolecules, 2022):
Positions count from the first letter of the chain named.

How the values were obtained:
[1] = biological target: T1, Myo2-GTD (globular tail domain of Myo2) (Saccharomyces cerevisiae (strain S288c), UniProt P19524 1152-1574); test: ITC; 200 μM Vac17-MIS in the syringe titrated into 20 μM Myo2-GTD in the cell, 25 °C; one-site binding model; details: both partners purified
T1 construct: Myo2 (class V myosin), S. cerevisiae, C-terminal globular tail domain (GTD); Named Trx-Myo2-GTD in the light scattering experiment; also called Trx-Myo2-GTD; source: E. coli BL21(DE3), purified (Ni2+-NTA, size exclusion chromatography); not shown: Trx, N-terminal, kept
T1 sequence (looked up): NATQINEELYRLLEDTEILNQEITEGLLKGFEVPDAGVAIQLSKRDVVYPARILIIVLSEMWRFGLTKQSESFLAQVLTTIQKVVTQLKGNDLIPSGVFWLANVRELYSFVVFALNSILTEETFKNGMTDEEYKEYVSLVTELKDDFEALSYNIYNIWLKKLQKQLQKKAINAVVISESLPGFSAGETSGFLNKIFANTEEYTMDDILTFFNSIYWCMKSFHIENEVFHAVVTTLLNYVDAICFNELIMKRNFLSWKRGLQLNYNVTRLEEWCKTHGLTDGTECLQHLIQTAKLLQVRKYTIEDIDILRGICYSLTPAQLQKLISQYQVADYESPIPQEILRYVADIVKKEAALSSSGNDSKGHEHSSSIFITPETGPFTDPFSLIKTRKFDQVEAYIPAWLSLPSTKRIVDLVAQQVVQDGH

Myo2-GTD L1331S = biological target: T2, Myo2-GTD L1331S (Saccharomyces cerevisiae (strain S288c)); test: ITC
T2 chain: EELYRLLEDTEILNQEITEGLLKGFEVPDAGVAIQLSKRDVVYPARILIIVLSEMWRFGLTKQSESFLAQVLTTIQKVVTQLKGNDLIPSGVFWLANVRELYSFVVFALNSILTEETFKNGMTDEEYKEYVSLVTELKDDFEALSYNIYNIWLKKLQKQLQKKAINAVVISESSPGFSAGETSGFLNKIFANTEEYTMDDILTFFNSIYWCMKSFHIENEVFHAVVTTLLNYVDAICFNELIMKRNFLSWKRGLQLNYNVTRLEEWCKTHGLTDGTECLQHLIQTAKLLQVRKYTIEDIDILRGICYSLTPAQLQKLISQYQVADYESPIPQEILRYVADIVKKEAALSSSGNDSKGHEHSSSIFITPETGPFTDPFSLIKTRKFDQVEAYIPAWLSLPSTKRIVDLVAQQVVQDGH

Myo2-GTD W1407A = biological target: T3, Myo2-GTD W1407A (Saccharomyces cerevisiae (strain S288c)); test: ITC
T3 chain: T2 chain with S174L, W250A

[2] = biological target: T4, Myo2-GTD (globular tail domain of Myo2) (Saccharomyces cerevisiae (strain S288c), UniProt P19524 1152-1574); test: ITC
T4 chain: T1 sequence (looked up)

Myo2-GTD Y1303A = biological target: T5, Myo2-GTD Y1303A (Saccharomyces cerevisiae); test: ITC
T5 chain: T2 chain with Y146A, S174L

Myo2-GTD D1297N = biological target: T6, Myo2-GTD D1297N (Saccharomyces cerevisiae); test: ITC
T6 chain: T2 chain with D140N, S174L

[3] = biological target: T1, Myo2-GTD (globular tail domain of Myo2); test: ITC; 500 μM Myo2-GTD in the syringe titrated into 50 μM Kar9-MIS or Pea2-MIS in the cell, 25 °C; one-site binding model; details: both partners purified

B1: Vac17-MIS (Myo2-interacting sequence of Vac17) (domain or fragment, Saccharomyces cerevisiae (strain S288c), UniProt P25591 112-157, looked up)
chain: PNEAPNDSPQSQSTRSSLGSFQPRPLKIIERQRLCMVTPSKPPKKS
notes: Vac17 (vacuole-related protein 17), S. cerevisiae, region containing residues 112-157 (MIS); Named Trx-tagged in the light scattering; also called Trx-Vas17-MIS; Vac17-MIS wild-type; source: E. coli BL21(DE3), purified (Ni2+-NTA, size exclusion chromatography); not shown: Trx, N-terminal, kept
Kd [1]: ~0.3 µM
Kd (Myo2-GTD L1331S): 0.41 µM
Kd (Myo2-GTD W1407A): 0.45 µM

B2: GST-Pea2-CC1 (GST-tagged Pea2-CC1; dimer) (domain or fragment)
chain: AIQEEDSSKKLEELETAFSDLQLAHNFLTKQFENDRAEYVQDIEKLTRTNRELQDKLLNNHSNLSKTEKKLHELEQENKELEKANNKLNSSRH
modifications: N-terminal GST (pGEX-4T-1) left out; GST drives the dimerization
Kd [2]: 11 µM
Kd (Myo2-GTD Y1303A): 11 µM
Kd (Myo2-GTD D1297N): 10 µM

B3: Pea2-CC1 (Trx-tagged; monomer) (domain or fragment, Saccharomyces cerevisiae (strain S288c), UniProt P40091 235-327, looked up)
chain: B2 chain
notes: Pea2 (polarisome subunit), S. cerevisiae, conserved coiled coil CC1 containing residues 235-327; Named Trx-tagged in the light scattering; also called Trx-tagged Pea2-CC1; Pea2-CC1 monomer; source: E. coli BL21(DE3), purified (Ni2+-NTA, size exclusion chromatography); not shown: Trx, N-terminal, kept
Kd [3]: ~50 µM
